Read-outs that look alike come from different tables or passages of the source. Where no end group is shown, it is not given here.

Holding throughout (assay): pull-down
The target in test [1] is T1, full length ^FlagCRBN expressed in CRBN-KO 293FT cells (human, UniProt Q96SW2 1-442).
Test [2] concerns the target T1, full length ^FlagCRBN expressed in …. The source holds these as a separate data set.
A further test deals with ^FlagCRBN H357Y (human, UniProt Q96SW2 1-442, H357Y).
^FlagCRBN H357Y, sequence (Q96SW2 whole entry H357Y): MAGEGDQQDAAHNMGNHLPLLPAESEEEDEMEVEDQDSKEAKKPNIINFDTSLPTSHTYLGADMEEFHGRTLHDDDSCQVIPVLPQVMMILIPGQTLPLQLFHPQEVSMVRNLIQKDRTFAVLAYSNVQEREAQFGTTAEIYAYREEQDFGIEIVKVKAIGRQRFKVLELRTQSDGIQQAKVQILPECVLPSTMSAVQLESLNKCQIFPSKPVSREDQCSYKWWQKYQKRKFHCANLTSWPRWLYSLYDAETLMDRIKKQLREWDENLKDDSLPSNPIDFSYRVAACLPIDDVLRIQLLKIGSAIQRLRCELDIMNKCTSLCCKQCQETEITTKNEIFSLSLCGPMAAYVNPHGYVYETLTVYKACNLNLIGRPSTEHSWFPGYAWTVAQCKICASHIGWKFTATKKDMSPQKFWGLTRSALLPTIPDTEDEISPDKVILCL

T1 sequence (Q96SW2 whole entry): as the sequence (Q96SW2 whole entry H357Y) above, with Y357H counted along it

For ASSHLNK(Ac)GIK(Ac)QVYMSLPQ (peptide, UniProt P15104 5-22, looked up, also: biotinylated, place not given here) [biotinylated synthetic GS peptide (amino acids 5-22 of GS), di-acetylated on K11 and K14], in test [1], the binding result was “binds”.

For the molecule ASSHLNKGIK(Ac)QVYMSLPQ (peptide, UniProt P15104 5-22, looked up, also: biotinylated, place not given here) [biotinylated synthetic GS peptide (amino acids 5-22 of GS), mono-acetylated on K14], in test [2], the binding result is “binds”.

As for ASSHLNK(Ac)GIKQVYMSLPQ (peptide, UniProt P15104 5-22, looked up, also: biotinylated, place not given here) [biotinylated synthetic GS peptide (amino acids 5-22 of GS), mono-acetylated on K11], the binding result (in the test with ^FlagCRBN H357Y; in test [2]) was “binds” throughout.

Source of the values: paper PMC4889030 (Molecular cell, 2016).
